Like-named read-outs stand apart in the source and are kept apart here.

Test [1] has as its target T1, human tissue factor (TF) on human bladder carcinoma cells J82 (human, UniProt P13726 33-295).
T1 construct: whole, on cells; also called the antigen; J82 cells
Kind of test: cell ELISA on paraformaldehyde-fixed J82 cells; AP-conjugated goat anti-human IgGγ; absorbance 405/655 nm. Here is the method:
(§1) Cell ELISA plates for measurement of antigen binding were prepared as follows. Cells used were human bladder carcinoma cells J82 (ATCC HTB-1). To 60 wells of a 96-well cell culture plate, 1 ×10^5 J82 cells were inoculated. This was cultured (RPMI1640 medium containing 10% fetal bovine serum (GIBCO)) for one day in a CO_2 incubator to allow the cells to be attached thereto. After discarding the culture liquid, each well was washed twice with 300 μl PBS. 100 μl of PBS containing 4% paraformaldehyde (hereinafter referred to as PFA/PBS) was added to each well, and placed on ice for 10 minutes to immobilize the cells.
(§2) PFA/PBS was discarded, and each well was washed twice with 300 μl of PBS, and then blocked with 250 μl of DB. The culture supernatant or purified antibody was serially diluted with DB, 100 μl of which was added to each well. After incubating at room temperature for 2 hours followed by washing with RB, 100 μl of alkaline phosphatase-conjugated goat anti-human IgGγ antibody (BioSource) diluted 1000-fold with DB was added. After incubating for 1 hour followed by washing with RB, the substrate solution was added, and then absorbance at 405/655 nm was measured using the Microplate Reader (Bio-Rad).

The target of test [2] is T2, TF/Factor VIIa complex (human, UniProt P13726 33-295; P08709 61-466). Kind of test: cell-based or functional assay.
T2 sequence (P13726 33-295 limits assumed, chain 1 of 2): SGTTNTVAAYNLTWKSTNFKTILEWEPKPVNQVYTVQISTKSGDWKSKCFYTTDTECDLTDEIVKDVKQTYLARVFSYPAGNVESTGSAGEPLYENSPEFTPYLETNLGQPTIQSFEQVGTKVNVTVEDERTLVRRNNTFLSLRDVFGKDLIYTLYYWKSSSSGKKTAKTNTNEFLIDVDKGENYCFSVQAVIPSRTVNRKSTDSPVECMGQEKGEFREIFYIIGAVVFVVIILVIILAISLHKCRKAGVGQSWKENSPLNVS
T2 sequence (P08709 61-466 limits assumed, chain 2 of 2): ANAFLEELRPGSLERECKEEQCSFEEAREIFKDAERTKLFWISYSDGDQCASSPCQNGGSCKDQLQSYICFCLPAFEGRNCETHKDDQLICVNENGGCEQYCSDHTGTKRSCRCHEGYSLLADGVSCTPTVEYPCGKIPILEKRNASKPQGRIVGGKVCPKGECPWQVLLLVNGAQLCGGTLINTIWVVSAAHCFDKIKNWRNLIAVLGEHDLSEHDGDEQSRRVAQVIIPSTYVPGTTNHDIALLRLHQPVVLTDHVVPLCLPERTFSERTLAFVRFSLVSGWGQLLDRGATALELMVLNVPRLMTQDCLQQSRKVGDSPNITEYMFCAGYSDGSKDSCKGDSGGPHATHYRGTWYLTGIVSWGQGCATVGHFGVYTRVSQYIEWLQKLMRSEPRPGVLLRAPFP
The target of test [3] is T1, human tissue factor (TF) on human …. Kind of test: cell ELISA on paraformaldehyde-fixed J82 cells; AP-conjugated goat anti-human IgGγ; absorbance 405/655 nm. On the procedure: as §1, §2
The source holds these as a separate data set. (In an ELISA, binding on a coated surface is turned into a signal by an enzyme label.)

Test [4] shares this target. The description is as above. Here is the method:
as §1, §2
The source holds these as a separate data set.

Test [5] addresses T3, soluble human TF (human TF 1-219 with the FLAG peptide linked to the C-terminal) (human, UniProt P13726 33-251).
T3 construct: Entry is the whole soluble construct (TF 1-219 followed by FLAG peptide M2); also called soluble TF; shTF
Kind of test: BIACORE; antibody captured on Protein G chip, soluble TF as analyte; mean ± SD, n = 3. Here is the method:
Kinetic analysis of the antigen-antibody reaction was carried out using BIACORE. The recombinant Protein G was immobilized on a sensor chip, to which the antibody was coupled. The purified recombinant TF (a soluble TF in which the FLAG peptide was tagged at 1-219) was used as the antigen, and the-soluble TF prepared at various concentrations were used as analytes. From the sensorgram obtained, kinetic parameters (dissociation rate constants kdiss, and binding rate constants kass) were calculated.
As the running buffer, the HBS-EP buffer was used. Ten μl Of […] antibody solution was injected at a flow rate of 20 μl/min to immobilize antibody. The antibody was diluted with the HBS-EP buffer. Forty μl Of the soluble human TF solution at various concentrations were injected at a flow rate of 30 μl/min thereto. In the analysis, 80 seconds for injection was set as the binding phase and then changed to the HBS-EP buffer to set the dissociation phase of 120 seconds. After the dissociation phase was over, 10 μl of 20 mM hydrochloric acid was injected to reconstitute the sensor chip. The binding, dissociation, and reconstitution were set as one cycle, and the sensorgram was obtained for each antibody. The soluble human TF solution was prepared at concentrations of 250 nM, 125 nM, 62.5 nM, 31.3 nM, 15.6 nM, 7.81 nM, and 3.91 nM using the HBS-EP buffer. As the blank, the sensorgram obtained by injecting the HBS-EP buffer used for dilution was used.
The data file of interest was read in, and the comparison of reaction patterns by superscription was made using as the baseline the sensorgram of the HBS-EP buffer. Furthermore, using an analytical application software "BIAevaluation 2.1" (Pharmacia) exclusively for BIACORE that calculates kinetic parameters (binding rate constants kass and dissociation rate constants kdiss) by curve-fitting, kinetic analysis of interaction was performed. In order to determine the binding rate constants kass, the analysis model type 4 was used (BIAevaluation 2.1 Software Hand book, A1-A5). Based on the values calculated from each flow cell, kinetic parameters for each antibody were obtained.
(In general: SPR reads the build-up and loss of mass on a sensor chip optically.)

The target of test [6] is T1, human tissue factor (TF) on human …. Kind of test: cell ELISA on paraformaldehyde-fixed J82 cells; AP-conjugated goat anti-human IgGγ; absorbance 405/655 nm. On the procedure: as §1, §2
This is another data set of the same source.

The target is the same in test [7]. Described as above. Here is the method:
as §1, §2
This is another data set of the same source.

Test [8] concerns the target T2, TF/Factor VIIa complex.

T1 sequence (P13726 33-295): as the sequence (P13726 33-295 limits assumed, chain 1 of 2) above
T3 sequence (P13726 other isoform, or with tags, fused parts or gaps limits assumed): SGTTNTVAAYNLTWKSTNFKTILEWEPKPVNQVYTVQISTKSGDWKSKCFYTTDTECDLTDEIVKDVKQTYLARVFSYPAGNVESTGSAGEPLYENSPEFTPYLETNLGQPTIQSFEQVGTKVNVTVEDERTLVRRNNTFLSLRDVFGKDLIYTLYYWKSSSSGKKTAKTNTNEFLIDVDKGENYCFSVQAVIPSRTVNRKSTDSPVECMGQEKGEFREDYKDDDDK

B1: H chain chimeric/L chain chimeric antibody (chimeric ATR-5 antibody) (antibody, V domains shown)
VH: EVQLQQSGTNLVRPGALVKLSCKGSGFNIKDYYMHWVKQRPEQGLEWIGGNDPANGHSMYDPKFQGKASITADTSSNTAYLQLSSLTSEDTAVYFCARDSGYAMDYWGQGTSVTVSS
VL: DIKMTQSPSSMYASLGERVTITCKASQDIKSFLSWYQQKPWKSPKTLIYYATSLADGVPSRFSGSGSGQDYSLTINNLESDDTATYYCLQHGESPYTFGGGTKLEIK
notes: Mouse ATR-5 V regions joined to human C regions; Both an IgG1 (N5KG1(V)) and an IgG4 (N5KG4P) kappa form were made; also called ch-ch; cha-cha
Consider B1, for which the concentration for a half-maximal effect (EC50 (read off the curve)) in test [1] is roughly 0.05 µg/mL; in test [3] it was roughly 0.08 µg/mL; in test [4], roughly 0.04 µg/mL; in test [6] it was roughly 0.04 µg/mL; in test [7], roughly 0.07 µg/mL. Further, the “IC50 (read off the curve)” value with TF/Factor VIIa complex [2] was roughly 0.2 µg/mL. The same molecule returned a Kd in test [5] of 1.09 nM. The koff in test [5] was 0.000506 s⁻¹. For the same molecule, the kon in test [5] was 465000 M⁻¹ s⁻¹.

B2: H chain humanized version b/L chain humanized version b antibody (antibody, IgG4, V domains shown)
VH: QVQLLESGAVLARPGTSVKISCKASGFNIKDYYMHWVKQRPGQGLEWIGGNDPANGHSMYDPKFQGRVTITADTSTNTAYMELSSLRSEDTAIYYCARDSGYAMDYWGQGTLVTVSS
VL: DIQMTQSPSSLSASVGDRVTITCKASQDIKSFLSWYQQKPGKAPKLLIYYATSLADGVPSRFSGSGSGTDYTLTISSLQPEDFATYYCLQHGESPYTFGGGTKVEIK
notes: also called b-b; bb
B2: the IC50 (read off the curve) in the test with TF/Factor VIIa complex [8] was determined as 0.1 µg/mL. In addition, in test [4], the “EC50 (read off the curve)” value is roughly 0.05 µg/mL. In test [5], this molecule gave a dissociation constant Kd of 2.3 nM, a koff of 0.000952 s⁻¹ and a kon of 415000 M⁻¹ s⁻¹. For the same molecule, in test [7], the “EC50 (read off the curve)” value was roughly 0.07 µg/mL.

As usually defined, the EC50 (read off the curve) is the concentration needed to bring the measured effect to its halfway point. High values mean lower potency in that assay, low ones higher potency in that assay. For orientation: Kd means the constant that tells how readily two partners part at equilibrium. A low value points to higher affinity. For orientation: koff means the first-order rate constant of dissociation. A lower koff goes with a long-lived complex. In general, kon refers to a measure of how fast the partners come together. Low readings indicate slower complex formation, high ones faster complex formation.

For the origin of these results see patent US7494647 (Chugai, dated 2009).
